B1: FAM46D (parent)
chain: LELKFVSSLRRQFEFSVDSFQIVL

Variants of: B1
Experiment: protein stability index of a GFP-peptide fusion (GPS, HEK-293T) (PSI 1-6); higher = more stable
Conditions: c terminus: a fixed tail appended
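Further: lentivirally expressed fusions sorted by FACS into six bins by GFP to DsRed ratio, PSI derived from sequencing read proportions per bin multiplied by bin number.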

Protein stability index: each site, then its substitutions
L9: A 2.93; V 4.14; D 3.93; H 2.9; K 2.41; C 3.2; F 2.95; P 3.04; S 3.64; R 3.73; I 2.75; Y 2.01; Q 3.29; N 2.64; T 2.99; E 1.82; W 3.47
F15: K 2.13; W 3.57; E 3.22; H 5.32; P 2.92; L 3.69; M 2.58; Q 3.16; D 2.09; N 4.46; G 3.1; I 4.07; C 2.42; V 4.5; S 3.33; R 2.68; T 2.43
F20: S 2.55; L 2.59; D 2.94; C 2.73; P 3.04; M 2.58; T 1.62; A 2.99; G 2.96; Y 3.11; W 3.5; I 3.44; H 2.62; Q 1.61; K 3.31; R 2.22; N 3.48; E 3.3
V6: H 2.9; F 2.38; R 3.15; G 2.81; P 2.08; S 2.49; W 4; D 2.73; Y 3.16; C 2.22; T 3.31; Q 1.56; I 2.95; E 2.75; N 4.62; L 2.81; M 2.61; K 3.51; A 2.77
S7: T 1.5; Y 3.11; P 2.67; N 1.88; A 3.21; D 3.25; I 2.85; K 2.57; E 4.25; F 4.35; C 3.17; W 2.37; M 3.02; R 2.91; G 2.76; H 3.18; Q 2.43
E14: A 3.98; G 3.4; P 3.67; Q 2.24; T 4.77; M 2.77; C 3.17; R 2.17; I 3.52; L 2.84; D 4; W 2.46; N 2.89; S 2.66; Y 3.27; K 3.16; V 2.06
R11: G 3.69; Q 3.05; Y 3.14; K 3.21; D 1.97; W 4.32; A 4.7; H 2.97; C 3.03; F 3.08; T 3.4; I 2.54; S 2.99; N 3.06; M 2.27; L 2.62; E 3.47
S16: T 4.1; A 3.32; H 2.69; D 3.15; E 2.89; C 3.91; M 3.57; P 3.75; I 2.93; Y 2.83; V 3.91; N 3.05; F 2.79; K 3.51; R 3.43
V17: T 2.76; C 3.37; G 2.62; L 3.25; D 4.26; K 2.76; I 2.8; F 2.88; P 2.44; M 4.44; W 4.01; E 1.91; Y 1.51; A 2.4; S 2.19; R 3.4; H 3.65; N 3.45
D18: S 2.94; G 2.54; F 2.06; Q 3.71; A 4.25; K 3.6; V 3.13; M 4.61; C 2; E 1.74; Y 3.18; N 3.43; W 3.27; R 3.4; P 3.29; I 3.49; H 4.76; L 2.1
E2: S 3; R 3.42; Y 3.04; K 3.23; T 2.78; Q 2.48; M 2.57; N 2.6; V 3.32; W 2.81; L 1.7
Q21: V 2.67; D 2.69; P 2.71; L 2.24; F 2.74; T 2.68; N 2.75; G 3.02; R 3.02; H 2.63; K 3.44; I 3.59; M 2.78; C 3.58; E 2.47; S 2.89; A 2.85
S19: D 3.06; I 4.06; V 2.12; M 4.08; K 2.88; L 2.88; A 3.69; T 2.43; Y 2.75; W 3.19; R 2.38; E 3.31; G 3.42; H 3.92; N 4; C 2.44; P 2.18; F 3.6
Q12: G 2.76; E 2.55; H 2.46; P 2.65; F 2.68; D 2.52; Y 2.8; N 2.49; S 3.06; K 3.09; C 1.78; A 4.78; W 3.97; T 2.42; V 3.44; M 3.09; R 2.39
F13: C 4.36; D 2.54; R 3.23; Q 2.84; Y 1.76; E 2.55; V 3.73; I 3.87; L 3.36; S 2.67; K 2.91; T 3.34; W 3.64; N 2.82; H 2.73
F5: C 3.27; Y 3.22; G 2.6; P 3.01; V 3.54; A 3.94; I 3.77; T 2.8; L 1.96; N 2.37; R 2.39; E 1.4; S 3.1; Q 2.59; D 2.09; M 4.22; K 1.64
L3: C 2.84; P 1.62; T 3.15; G 2.11; V 3; A 3.39; R 2.23; N 2.3; W 2.77; S 3.84; F 2.43; E 1.66; K 3.37; H 1.82; I 2.5; D 3.2; Y 2.2; Q 2.38
R10: H 2.93; Y 2.17; A 3; V 2.04; W 2.01; F 2.79; I 3.38; S 3.46; T 2.83; M 2.72; C 2.67; N 2.23; L 3.46; P 3.23
K4: D 3.48; E 2.38; I 2.9; Y 2.06; S 3.75; Q 3.84; F 3.11; M 4.16; G 2.9; P 3.77; R 3.25; H 3.46; A 2.28; N 2.95; L 3.25; C 3.62; V 4.21
S8: F 1.95; Y 2.44; P 2.69; H 3.22; V 1.71; W 2.98; C 2.96; N 2.92; L 3.46; G 2.81; R 2.15; A 2.57; Q 2.95; K 2.05; T 3; M 3.34; D 2.97
